Assay results from US20260109774A1 (JUNO THERAPEUTICS, published 2026).

How the values were obtained:
[1] = target: T1, BCMA-Fc (soluble human BCMA fused at its C-terminus to an Fc region of IgG) (human, UniProt Q02223 1-54); assay: flow cytometry, T cells transduced with O/SSE construct, CD4 gate, recombinant BCMA-Fc (rBCMA) staining against surrogate marker
T1 construct: also called hBCMA-Fc; hBMCA-Fc
T1 sequence: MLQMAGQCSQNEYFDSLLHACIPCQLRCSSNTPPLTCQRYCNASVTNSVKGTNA
Method: (§1) Lentiviral constructs containing anti-BCMA CAR-encoding polynucleotides with starting and optimized sequences, respectively, as described in Example 3, were transduced into T cells and transduced cells were analyzed for transduction (based on expression of a surrogate marker) and for CAR expression based on binding to recombinant BCMA-Fc fusion protein by flow cytometry.

[2] = target: T1, BCMA-Fc (soluble human BCMA fused at …); assay: flow cytometry, T cells transduced with Non-SSE construct, CD8 gate, recombinant BCMA-Fc (rBCMA) staining against surrogate marker
Method: as §1

[3] = target: T1, BCMA-Fc (soluble human BCMA fused at …); assay: flow cytometry, T cells transduced with Non-SSE construct, CD4 gate, recombinant BCMA-Fc (rBCMA) staining against surrogate marker
Method: as §1

[4] = target: T1, BCMA-Fc (soluble human BCMA fused at …); assay: flow cytometry, T cells transduced with O/SSE construct, CD8 gate, recombinant BCMA-Fc (rBCMA) staining against surrogate marker
Method: as §1

[5] = target: T2, human B-cell maturation antigen (BCMA) on cells (human, UniProt Q02223 1-184); assay: flow cytometry on BCMA-expressing HEK293 cells vs control cells, crude lysate or bacterial supernatant; clone listed in Table E2
T2 construct: Recombinant on HEK293 or K562 cells, or endogenous on cell lines (H929, RPMI 8226, OPM2, MM1S, Daudi); also called hBCMA; huBCMA
T2 chain: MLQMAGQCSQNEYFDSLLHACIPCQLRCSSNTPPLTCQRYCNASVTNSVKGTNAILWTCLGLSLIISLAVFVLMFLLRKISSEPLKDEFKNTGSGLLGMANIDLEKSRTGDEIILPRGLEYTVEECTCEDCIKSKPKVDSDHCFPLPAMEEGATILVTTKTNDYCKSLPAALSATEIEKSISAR
Method: Specific binding of resulting scFv clones to BCMA-expressing HEK293 cells, as compared to control cells not expressing BCMA, was assessed by flow cytometry either with in vitro translated crude cell lysate or with bacterially-produced supernatant.

B1: BCMA-25-LS CAR (other)
chain: EVQLVQSGGGLVQPGRSLRLSCTASGFTFGDYAMSWFRQAPGKGLEWVGFIRSKAYGGTTEYAASVKGRFTISRDDSKSIAYLQMNSLKTEDTAVYYCAAWSAPTDYWGQGTLVTVSSGGGGSGGGGSGGGGSDIQMTQSPAFLSASVGDRVTVTCRASQGISNYLAWYQQKPGNAPRLLIYSASTLQSGVPSRFRGTGYGTEFSLTIDSLQPEDFATYYCQQSYTSRQTFGPGTRLDIKESKYGPPCPPCPAPPVAGPSVFLFPPKPKDTLMISRTPEVTCVVVDVSQEDPEVQFNWYVDGVEVHNAKTKPREEQFQSTYRVVSVLTVLHQDWLNGKEYKCKVSNKGLPSSIEKTISKAKGQPREPQVYTLPPSQEEMTKNQVSLTCLVKGFYPSDIAVEWESNGQPENNYKTTPPVLDSDGSFFLYSRLTVDKSRWQEGNVFSCSVMHEALHNHYTQKSLSLSLGKMFWVLVVVGGVLACYSLLVTVAFIIFWVKRGRKKLLYIFKQPFMRPVQTTQEEDGCSCRFPEEEEGGCELRVKFSRSADAPAYQQGQNQLYNELNLGRREEYDVLDKRRGRDPEMGGKPRRKNPQEGLYNELQKDKMAEAYSEIGMKGERRRGKGHDGLYQGLSTATKDTYDALHMQALPPR
notes: Chimeric antigen receptor; signal peptide left out; also called BCMA-25-LS-O/SSE CAR; BCMA-25-L CAR
% of cells in Q1 (rBCMA+ marker-) [1]: 2.36%
% of cells in Q3 (rBCMA- marker+) [1]: 10.4%
% of cells in Q4 (rBCMA- marker-) [1]: 22.3%
% of cells in Q1 (rBCMA+ marker-) [2]: 0.37%
% of cells in Q3 (rBCMA- marker+) [2]: 29.4%
% of cells in Q4 (rBCMA- marker-) [2]: 52.5%
% of cells in Q1 (rBCMA+ marker-) [3]: 0.31%
% of cells in Q3 (rBCMA- marker+) [3]: 30.5%
% of cells in Q4 (rBCMA- marker-) [3]: 51.3%
% of cells in Q1 (rBCMA+ marker-) [4]: 1.37%
% of cells in Q3 (rBCMA- marker+) [4]: 17.5%
% of cells in Q4 (rBCMA- marker-) [4]: 19.4%

B2: BCMA-52-LS CAR (other)
chain: SYELTQPPSASGTPGQRVTMSCSGTSSNIGSHSVNWYQQLPGTAPKLLIYTNNQRPSGVPDRFSGSKSGTSASLAISGLQSEDEADYYCAAWDGSLNGLVFGGGTKLTVLGSRGGGGSGGGGSGGGGSLEMAEVQLVQSGAEVKKPGESLKISCKGSGYSFTSYWIGWVRQMPGKGLEWMGIIYPGDSDTRYSPSFQGHVTISADKSISTAYLQWSSLKASDTAMYYCARYSGSFDNWGQGTLVTVSSESKYGPPCPPCPAPPVAGPSVFLFPPKPKDTLMISRTPEVTCVVVDVSQEDPEVQFNWYVDGVEVHNAKTKPREEQFQSTYRVVSVLTVLHQDWLNGKEYKCKVSNKGLPSSIEKTISKAKGQPREPQVYTLPPSQEEMTKNQVSLTCLVKGFYPSDIAVEWESNGQPENNYKTTPPVLDSDGSFFLYSRLTVDKSRWQEGNVFSCSVMHEALHNHYTQKSLSLSLGKMFWVLVVVGGVLACYSLLVTVAFIIFWVKRGRKKLLYIFKQPFMRPVQTTQEEDGCSCRFPEEEEGGCELRVKFSRSADAPAYQQGQNQLYNELNLGRREEYDVLDKRRGRDPEMGGKPRRKNPQEGLYNELQKDKMAEAYSEIGMKGERRRGKGHDGLYQGLSTATKDTYDALHMQALPPR
notes: Chimeric antigen receptor on T cells; also called BCMA-52-LS-O/SSE CAR; BCMA-52-L CAR
% of cells in Q1 (rBCMA+ marker-) [1]: 3.66%
% of cells in Q3 (rBCMA- marker+) [1]: 3.85%
% of cells in Q4 (rBCMA- marker-) [1]: 22.9%
% of cells in Q1 (rBCMA+ marker-) [2]: 2.88%
% of cells in Q3 (rBCMA- marker+) [2]: 24.3%
% of cells in Q4 (rBCMA- marker-) [2]: 41.1%
% of cells in Q1 (rBCMA+ marker-) [3]: 1.71%
% of cells in Q3 (rBCMA- marker+) [3]: 19.5%
% of cells in Q4 (rBCMA- marker-) [3]: 42.5%
% of cells in Q1 (rBCMA+ marker-) [4]: 3.89%
% of cells in Q3 (rBCMA- marker+) [4]: 5.38%
% of cells in Q4 (rBCMA- marker-) [4]: 28.3%

B3: BCMA-37 scFv (scFv)
scFv: EVQLVQSGGGLVKPGGSLRLSCAASGFTFSDYYMSWIRQAPGKGLEWVSYISSSGSTIYYADSVKGRFTISRDNAKSSLYLQMNSLRAEDTAVYYCARVDGDYVDDYWGQGTLVTVSSGGGGSGGGGSGGGGSQLVLTQEPSLTVSPGGTVTLTCGSSTGAVTNGHSPYWFQQKPGQAPRTLIYDTTNRHSWTPARFSGSLLGGKAALTLSGAQPEDEAEYYCSLSHAGDRVFFGGGTKLTVL
binding result [5]: binds

B4: BCMA-38 scFv (scFv)
scFv: QVQLVQSGGGLVKPGGSLRLSCAASGFTFSDYYMSWIRQAPGKGLEWVSYISSSGSTIYYADSVKGRFTISRDNAKNSLYLQMNSLRAEDTAVYYCARVDGDYVDDYWGQGTLVTVSSGGGGSGGGGSGGGGSQAVLTQEPSLTVSPGGTVTLTCGSSTGAVTNGHSPYWFQQKPGQAPRTLIYDTNNRHSWTPARFSGSLLGGKAALTLSGAQPEDEADYFCLLSYSDARLAFGGGTKLTVL
binding result [5]: binds

B5: BCMA-41 scFv (scFv)
scFv: QVQLVQSGGGLVKPGGSLRLSCAASGFTFSDYYMSWIRQAPGKGLEWVSYISSSGNTIYYADSVKGRFTISRDNAKNSLYLQMNSLRAEDTAVYYCAKVDGDYVDDYWGQGTLVTVSSGGGGSGGGGSGGGGSQPVLTQPPSVSGTPGQRVTIPCSGSSSNIGGNSVDWFQEVPGTAPKLLIYANDRRPSGVPDRFSGTKSGTSASLAIRGLQSDDDAHYYCESWDDALNGHVFGGGTKLTVL
binding result [5]: binds

B6: BCMA-42 scFv (scFv)
scFv: EVQLLESGGGLVQPGRSLRLSCTASGFTFGDYAMSWFRQAPGKGLEWVGFIRSKAYGGTTEYAASVKGRFTISRDDSKSIAYLQMNSLKTEDTAVYYCAAWSAPTDYWGQGTLVTVSSGGGGSGGGGSGGGGSDIQMTQSPSLVSASVGDRVTITCRASQGIGNGLAWYQQKPGKAPKLLLFAASRLESGVPSRFSGSRSGTDYTLTISSLQPEDVATYYCQQYVEDALTFGGGTKVDIK
binding result [5]: binds

B7: BCMA-45 scFv (scFv)
scFv: QVQLVQSGGGLVQPGRSLRLSCTASGFTFGDYAMSWFRQAPGKGLEWVGFIRSKAYGGTTEYAASVKGRFTISRDDSKSIAYLQMNSLKTEDTAVYYCAAWSAPTDYWGQGTLVTVSSGGGGSGGGGSGGGGSAIRMTQSPSSLSASVGDRVTITCRASQGIGRSLAWYKQKPGGVPQLLIHDASSLRSGVPSRFSGSGSGTEFTLTISGVQSEDSATYHCQQLNGYPWTFGQGTKVDIK
binding result [5]: binds

B8: BCMA-48 scFv (scFv)
scFv: EVQLVESGGGLVKPGGSLRLSCAASGFTFSDYYMSWIRQAPGKGLEWVSYISSSGSTIYYADSVKGRFTISRDNAKNSLYLQMNSLRAEDTAVYYCAKVDGPPSFDIWGQGTMVTVSSGGGGSGGGGSGGGGSQPVLTQPPSVSVAPGKTATITCGGNNIGSKSVHWYQRKPGQGPVVVIQYDTDRPSGIPERFSGSNSGNTATLTISRVEAGDEGDYYCQVWDSSSDHWVFGGGTKLTVL
binding result [5]: binds

B9: BCMA-49 scFv (scFv)
scFv: QVQLVESGGGLVKPGGSLRLSCAASGFTFSDYYMSWIRQAPGKGLEWVSYISSSGSTIYYADSVKGRFTISRDNAKNSLYLQMNSLRAEDTAVYYCAKVDGPPSFDIWGQGTMVTVSSGGGGSGGGGSGGGGSLPVLTQPPSVSVAPGKTARITCGGDQIGRKSVHWYQQKPGQAPVLVMSYDSDRPSGIPERFSGSNSGNTATLTISRVEAGDEAAYYCQVWDSSTGQYVVFGGGTKLTVL
binding result [5]: binds

B10: BCMA-51 scFv (scFv)
scFv: EVQLVQSGGGLVQPGRSLRLSCTASGFTFGDYAMSWFRQAPGKGLEWVGFIRSKAYGGTTEYAASVKGRFTISRDDSKSIAYLQMNSLKTEDTAVYYCAAWSAPTDYWGQGTLVTVSSGGGGSGGGGSGGGGSAIQLTQSPSTLSASVGDRVAITCRASQNIGDWLAWYQQKPGKAPKLLIFGASILESGVPSRFSGSGSGTDFTLTISSLQPEDVAVYYCQKYDGAPPWTFGQGTKVEIK
binding result [5]: binds
